In IntAct's records for PubMed 31515488:

B1: Nucleoside diphosphate kinase homolog 5 (Homo sapiens), P56597 (parent)
chain: MEISMPPPQIYVEKTLAIIKPDIVDKEEEIQDIILRSGFTIVQRRKLRLSPEQCSNFYVEKYGKMFFPNLTAYMSSGPLVAMILARHKAISYWLELLGPNNSLVAKETHPDSLRAIYGTDDLRNALHGSNDFAAAEREIRFMFPEVIVEPIPIGQAAKDYLNLHIMPTLLEGLTELCKQKPADPLIWLADWLLKNNPNKPKLCHHPIVEEPY
partner: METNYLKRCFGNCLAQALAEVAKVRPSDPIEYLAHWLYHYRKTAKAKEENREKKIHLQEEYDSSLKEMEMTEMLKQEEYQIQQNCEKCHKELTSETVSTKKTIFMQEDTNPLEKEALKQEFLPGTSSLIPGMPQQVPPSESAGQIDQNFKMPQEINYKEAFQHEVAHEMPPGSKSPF
B2: Signal transducing adapter molecule 1 (Homo sapiens), Q92783 (parent)
chain: MPLFATNPFDQDVEKATSEMNTAEDWGLILDICDKVGQSRTGPKDCLRSIMRRVNHKDPHVAMQALTLLGACVSNCGKIFHLEVCSRDFASEVSNVLNKGHPKVCEKLKALMVEWTDEFKNDPQLSLISAMIKNLKEQGVTFPAIGSQAAEQAKASPALVAKDPGTVANKKEEEDLAKAIELSLKEQRQQSTTLSTLYPSTSSLLTNHQHEGRKVRAIYDFEAAEDNELTFKAGEIITVLDDSDPNWWKGETHQGIGLFPSNFVTADLTAEPEMIKTEKKTVQFSDDVQVETIEPEPEPAFIDEDKMDQLLQMLQSTDPSDDQPDLPELLHLEAMCHQMGPLIDEKLEDIDRKHSELSELNVKVMEALSLYTKLMNEDPMYSMYAKLQNQPYYMQSSGVSGSQVYAGPPPSGAYLVAGNAQMSHLQSYSLPPEQLSSLSQAVVPPSANPALPSQQTQAAYPNTMVSSVQGNTYPSQAPVYSPPPAATAAAATADVTLYQNAGPNMPQVPNYNLTSSTLPQPGGSQQPPQPQQPYSQKALL
B3: TNF receptor-associated factor 1 (Homo sapiens), Q13077 (parent)
chain: MASSSGSSPRPAPDENEFPFGCPPTVCQDPKEPRALCCAGCLSENPRNGEDQICPKCRGEDLQSISPGSRLRTQEKAHPEVAEAGIGCPFAGVGCSFKGSPQSVQEHEVTSQTSHLNLLLGFMKQWKARLGCGLESGPMALEQNLSDLQLQAAVEVAGDLEVDCYRAPCSESQEELALQHFMKEKLLAELEGKLRVFENIVAVLNKEVEASHLALATSIHQSQLDRERILSLEQRVVELQQTLAQKDQALGKLEQSLRLMEEASFDGTFLWKITNVTRRCHESACGRTVSLFSPAFYTAKYGYKLCLRLYLNGDGTGKRTHLSLFIVIMRGEYDALLPWPFRNKVTFMLLDQNNREHAIDAFRPDLSSASFQRPQSETNVASGCPLFFPLSKLQSPKHAYVKDDTMFLKCIVETST
B4: Four and a half LIM domains protein 2 (Homo sapiens), Q14192 (parent)
chain: MTERFDCHHCNESLFGKKYILREESPYCVVCFETLFANTCEECGKPIGCDCKDLSYKDRHWHEACFHCSQCRNSLVDKPFAAKEDQLLCTDCYSNEYSSKCQECKKTIMPGTRKMEYKGSSWHETCFICHRCQQPIGTKSFIPKDNQNFCVPCYEKQHAMQCVQCKKPITTGGVTYREQPWHKECFVCTACRKQLSGQRFTARDDFAYCLNCFCDLYAKKCAGCTNPISGLGGTKYISFEERQWHNDCFNCKKCSLSLVGRGFLTERDDILCPDCGKDI
partner: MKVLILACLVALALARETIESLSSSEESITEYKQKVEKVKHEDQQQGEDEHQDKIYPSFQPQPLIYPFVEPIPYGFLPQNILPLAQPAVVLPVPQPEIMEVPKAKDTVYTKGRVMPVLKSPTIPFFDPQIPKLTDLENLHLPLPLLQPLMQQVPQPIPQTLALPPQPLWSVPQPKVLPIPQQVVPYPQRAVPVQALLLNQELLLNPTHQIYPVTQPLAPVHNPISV
B5: Transcription initiation factor IIA subunit 1 (Homo sapiens), P52655-1 (parent)
chain: MANSANTNTVPKLYRSVIEDVINDVRDIFLDDGVDEQVLMELKTLWENKLMQSRAVDGFHSEEQQLLLQVQQQHQPQQQQHHHHHHHQQAQPQQTVPQQAQTQQVLIPASQQATAPQVIVPDSKLIQHMNASNMSAAATAATLALPAGVTPVQQILTNSGQLLQVVRAANGAQYIFQPQQSVVLQQQVIPQMQPGGVQAPVIQQVLAPLPGGISPQTGVIIQPQQILFTGNKTQVIPTTVAAPTPAQAQITATGQQQPQAQPAQTQAPLVLQVDGTGDTSSEEDEDEEEDYDDDEEEDKEKDGAEDGQVEEEPLNSEDDVSDEEGQELFDTENVVVCQYDKIHRSKNKWKFHLKDGIMNLNGRDYIFSKAIGDAEW
B6: Leucine rich adaptor protein 1 (Homo sapiens), Q96LR2 (parent)
chain: MEGTVESQTPDLRDVEGKVGRKTPEGLLRGLRGECELGTSGALLLPGASSTGHDLGDKIMALKMELAYLRAIDVKILQQLVTLNEGIEAVRWLLEERGTLTSHCSSLTSSQYSLTGGSPGRSRRGSWDSLPDTSTTDRLDSVSIGSFLDTVAPSELDEQGPPGAPRSEMDWAKVIAGGERARTEVDVAATRLGSLRAVWKPPGERLQGGPPESPEDESAKLGFEAHWFWEQCQDDVTFL
partner: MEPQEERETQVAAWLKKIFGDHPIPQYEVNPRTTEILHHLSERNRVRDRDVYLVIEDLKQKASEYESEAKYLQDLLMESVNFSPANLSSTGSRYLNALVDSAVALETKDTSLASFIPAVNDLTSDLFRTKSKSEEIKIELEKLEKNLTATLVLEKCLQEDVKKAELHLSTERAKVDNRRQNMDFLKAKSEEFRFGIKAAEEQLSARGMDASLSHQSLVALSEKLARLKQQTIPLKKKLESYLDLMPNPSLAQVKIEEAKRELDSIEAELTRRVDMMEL
B7: Zinc finger protein 581 (Homo sapiens), Q9P0T4 (parent)
chain: MLVLPSPCPQPLAFSSVETMEGPPRRTCRSPEPGPSSSIGSPQASSPPRPNHYLLIDTQGVPYTVLVDEESQREPGASGAPGQKKCYSCPVCSRVFEYMSYLQRHSITHSEVKPFECDICGKAFKRASHLARHHSIHLAGGGRPHGCPLCPRRFRDAGELAQHSRVHSGERPFQCPHCPRRFMEQNTLQKHTRWKHP
partner: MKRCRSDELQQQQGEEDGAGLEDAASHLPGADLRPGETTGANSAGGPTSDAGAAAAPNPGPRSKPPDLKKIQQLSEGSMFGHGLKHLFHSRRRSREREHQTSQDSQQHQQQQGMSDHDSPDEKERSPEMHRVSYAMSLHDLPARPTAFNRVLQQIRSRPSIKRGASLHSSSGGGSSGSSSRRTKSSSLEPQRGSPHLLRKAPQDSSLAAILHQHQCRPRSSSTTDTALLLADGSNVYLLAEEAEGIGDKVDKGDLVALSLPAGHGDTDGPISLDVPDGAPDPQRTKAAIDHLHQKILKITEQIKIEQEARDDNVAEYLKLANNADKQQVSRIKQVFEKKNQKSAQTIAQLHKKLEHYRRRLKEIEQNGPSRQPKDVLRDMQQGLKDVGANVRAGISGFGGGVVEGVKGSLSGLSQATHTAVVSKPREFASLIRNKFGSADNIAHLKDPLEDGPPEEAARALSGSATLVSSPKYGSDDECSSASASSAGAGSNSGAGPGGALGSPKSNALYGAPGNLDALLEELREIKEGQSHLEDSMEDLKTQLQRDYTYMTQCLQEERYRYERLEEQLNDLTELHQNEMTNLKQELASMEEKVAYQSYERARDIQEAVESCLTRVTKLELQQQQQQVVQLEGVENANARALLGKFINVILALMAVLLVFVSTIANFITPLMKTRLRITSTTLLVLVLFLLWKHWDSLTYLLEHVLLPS
B8: EF-hand domain-containing protein 1 (Homo sapiens), Q5JVL4 (parent)
chain: MVSNPVHGLPFLPGTSFKDSTKTAFHRSQTLSYRNGYAIVRRPTVGIGGDRLQFNQLSQAELDELASKAPVLTYGQPKQAPPADFIPAHVAFDKKVLKFDAYFQEDVPMSTEEQYRIRQVNIYYYLEDDSMSVIEPVVENSGILQGKLIKRQRLAKNDRGDHYHWKDLNRGINITIYGKTFRVVDCDQFTQVFLESQGIELNPPEKMALDPYTELRKQPLRKYVTPSDFDQLKQFLTFDKQVLRFYAIWDDTDSMYGECRTYIIHYYLMDDTVEIREVHERNDGRDPFPLLMNRQRVPKVLVENAKNFPQCVLEISDQEVLEWYTAKDFIVGKSLTILGRTFFIYDCDPFTRRYYKEKFGITDLPRIDVSKREPPPVKQELPPYNGFGLVEDSAQNCFALIPKAPKKDVIKMLVNDNKVLRYLAVLESPIPEDKDRRFVFSYFLATDMISIFEPPVRNSGIIGGKYLGRTKVVKPYSTVDNPVYYGPSDFFIGAVIEVFGHRFIILDTDEYVLKYMESNAAQYSPEALASIQNHVRKREAPAPEAESKQTEKDPGVQELEALIDTIQKQLKDHSCKDNIREAFQIYDKEASGYVDRDMFFKICESLNVPVDDSLVKELIRMCSHGEGKINYYNFVRAFSN
partner: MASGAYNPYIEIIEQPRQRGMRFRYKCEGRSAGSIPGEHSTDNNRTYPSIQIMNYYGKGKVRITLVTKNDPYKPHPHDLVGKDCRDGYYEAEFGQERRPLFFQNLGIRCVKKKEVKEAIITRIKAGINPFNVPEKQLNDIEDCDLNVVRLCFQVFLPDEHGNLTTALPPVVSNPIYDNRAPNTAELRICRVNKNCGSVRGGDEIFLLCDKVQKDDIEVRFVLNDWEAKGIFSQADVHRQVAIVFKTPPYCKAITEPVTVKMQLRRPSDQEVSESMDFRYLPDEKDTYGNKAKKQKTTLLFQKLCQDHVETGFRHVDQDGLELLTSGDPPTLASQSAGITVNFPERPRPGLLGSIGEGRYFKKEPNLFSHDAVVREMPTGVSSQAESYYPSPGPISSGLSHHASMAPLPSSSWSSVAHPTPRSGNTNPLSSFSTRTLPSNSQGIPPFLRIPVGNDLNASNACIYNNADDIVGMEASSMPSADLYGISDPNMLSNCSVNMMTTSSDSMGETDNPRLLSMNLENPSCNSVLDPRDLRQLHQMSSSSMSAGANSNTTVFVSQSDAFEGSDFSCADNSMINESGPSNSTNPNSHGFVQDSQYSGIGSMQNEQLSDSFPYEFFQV
B9: Zinc finger protein Aiolos (Homo sapiens), Q9UKT9 (parent)
chain: MEDIQTNAELKSTQEQSVPAESAAVLNDYSLTKSHEMENVDSGEGPANEDEDIGDDSMKVKDEYSERDENVLKSEPMGNAEEPEIPYSYSREYNEYENIKLERHVVSFDSSRPTSGKMNCDVCGLSCISFNVLMVHKRSHTGERPFQCNQCGASFTQKGNLLRHIKLHTGEKPFKCHLCNYACQRRDALTGHLRTHSVEKPYKCEFCGRSYKQRSSLEEHKERCRTFLQSTDPGDTASAEARHIKAEMGSERALVLDRLASNVAKRKSSMPQKFIGEKRHCFDVNYNSSYMYEKESELIQTRMMDQAINNAISYLGAEALRPLVQTPPAPTSEMVPVISSMYPIALTRAEMSNGAPQELEKKSIHLPEKSVPSERGLSPNNSGHDSTDTDSNHEERQNHIYQQNHMVLSRARNGMPLLKEVPRSYELLKPPPICPRDSVKVINKEGEVMDVYRCDHCRVLFLDYVMFTIHMGCHGFRDPFECNMCGYRSHDRYEFSSHIARGEHRALLK
partner: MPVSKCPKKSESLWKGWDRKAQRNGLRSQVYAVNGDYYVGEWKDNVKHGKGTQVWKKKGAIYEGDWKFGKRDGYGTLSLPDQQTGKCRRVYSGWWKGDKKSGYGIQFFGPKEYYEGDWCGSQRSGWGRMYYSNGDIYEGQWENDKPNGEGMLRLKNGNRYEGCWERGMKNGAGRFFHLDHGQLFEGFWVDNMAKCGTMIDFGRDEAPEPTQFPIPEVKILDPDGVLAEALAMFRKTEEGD

Variants of: B1
Settings: with dydc2_human DYDC2, Q96IM9

effect of a mutation on the interaction	Variant
with no effect	I165M
with no effect	L103F
with no effect	S50N

Variants of: B2
Settings: with hgs_human HGS

effect of a mutation on the interaction	Variant
with no effect	I350T
with no effect	I343T
with no effect	A367T
with no effect	V61I

Variants of: B3
Settings: with traf2_human TRAF2, Q12933
Sequence of traf2_human TRAF2, Q12933 (Q12933 whole entry): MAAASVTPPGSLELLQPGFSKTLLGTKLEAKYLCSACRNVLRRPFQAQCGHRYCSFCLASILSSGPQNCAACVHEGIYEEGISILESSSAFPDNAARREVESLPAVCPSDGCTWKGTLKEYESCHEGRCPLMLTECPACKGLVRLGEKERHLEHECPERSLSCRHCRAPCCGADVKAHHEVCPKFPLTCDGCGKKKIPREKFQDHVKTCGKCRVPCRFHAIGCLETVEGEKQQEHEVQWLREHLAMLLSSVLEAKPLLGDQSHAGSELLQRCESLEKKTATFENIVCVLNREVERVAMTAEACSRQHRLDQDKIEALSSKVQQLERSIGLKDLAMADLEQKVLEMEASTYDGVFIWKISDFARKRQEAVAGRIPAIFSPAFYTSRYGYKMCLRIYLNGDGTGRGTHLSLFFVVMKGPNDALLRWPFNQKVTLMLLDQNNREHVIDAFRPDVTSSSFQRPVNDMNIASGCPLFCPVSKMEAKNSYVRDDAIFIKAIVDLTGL

effect of a mutation on the interaction	Variant
with no effect	R226H
with no effect	R226C
with no effect	R228C
with no effect	R228H
with no effect	V208M
with no effect	K193R

Variants of: B4
Settings: with casb_human CSN2, P05814

effect of a mutation on the interaction	Variant
with no effect	N95K
with no effect	A37S

Variants of: B5
Settings: with nfya_human NFYA

effect of a mutation on the interaction	Variant
with no effect	L30V

Variants of: B6
Settings: with haus1_human HAUS1, Q96CS2

effect of a mutation on the interaction	Variant
with no effect	M60L
with no effect	Q207R

Variants of: B7
Settings: with tmcc2_human TMCC2, O75069

effect of a mutation on the interaction	Variant
with no effect	R143W
with no effect	E32A

Variants of: B8
Settings: with rel_human REL

effect of a mutation on the interaction	Variant
with no effect	Y102C

Variants of: B9
Settings: with morn3_human MORN3, Q6PF18

effect of a mutation on the interaction	Variant
with no effect	N119D
with no effect	A24V
